According to patent US20240018502A1:
Numbering of substitutions follows the chain as printed. Names and notes keep the numbering of the source. Blank lines part the entries; values can stand above or below the binder they belong to.

Experiments:
[1] = biological target: proteinase-activated receptor 2 (PAR-2) (UniProt P55085); assay: cell-based or functional assay
[2] = biological target: human complement protein C3 (human) (UniProt P01024); assay: cell-based or functional assay
human complement protein C3 (human), sequence (P01024 23-667, chain 1 of 2): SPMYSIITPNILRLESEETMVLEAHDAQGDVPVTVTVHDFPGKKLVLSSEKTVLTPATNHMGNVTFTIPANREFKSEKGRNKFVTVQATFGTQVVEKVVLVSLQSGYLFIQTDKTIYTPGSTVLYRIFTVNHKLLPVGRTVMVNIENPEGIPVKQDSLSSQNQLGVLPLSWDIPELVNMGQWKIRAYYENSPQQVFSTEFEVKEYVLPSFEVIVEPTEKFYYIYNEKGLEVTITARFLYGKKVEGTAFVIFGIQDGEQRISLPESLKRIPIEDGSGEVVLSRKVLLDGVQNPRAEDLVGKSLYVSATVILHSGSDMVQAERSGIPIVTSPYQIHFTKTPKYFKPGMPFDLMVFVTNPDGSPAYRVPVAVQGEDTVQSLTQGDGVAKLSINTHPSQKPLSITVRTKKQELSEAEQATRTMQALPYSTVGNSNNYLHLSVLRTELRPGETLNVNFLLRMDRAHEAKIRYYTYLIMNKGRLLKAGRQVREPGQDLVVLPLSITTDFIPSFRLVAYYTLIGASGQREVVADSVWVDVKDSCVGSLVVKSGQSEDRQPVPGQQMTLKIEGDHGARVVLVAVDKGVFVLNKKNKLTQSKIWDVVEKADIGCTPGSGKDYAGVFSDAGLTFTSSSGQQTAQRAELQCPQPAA
human complement protein C3 (human), sequence (P01024 672-1663, chain 2 of 2): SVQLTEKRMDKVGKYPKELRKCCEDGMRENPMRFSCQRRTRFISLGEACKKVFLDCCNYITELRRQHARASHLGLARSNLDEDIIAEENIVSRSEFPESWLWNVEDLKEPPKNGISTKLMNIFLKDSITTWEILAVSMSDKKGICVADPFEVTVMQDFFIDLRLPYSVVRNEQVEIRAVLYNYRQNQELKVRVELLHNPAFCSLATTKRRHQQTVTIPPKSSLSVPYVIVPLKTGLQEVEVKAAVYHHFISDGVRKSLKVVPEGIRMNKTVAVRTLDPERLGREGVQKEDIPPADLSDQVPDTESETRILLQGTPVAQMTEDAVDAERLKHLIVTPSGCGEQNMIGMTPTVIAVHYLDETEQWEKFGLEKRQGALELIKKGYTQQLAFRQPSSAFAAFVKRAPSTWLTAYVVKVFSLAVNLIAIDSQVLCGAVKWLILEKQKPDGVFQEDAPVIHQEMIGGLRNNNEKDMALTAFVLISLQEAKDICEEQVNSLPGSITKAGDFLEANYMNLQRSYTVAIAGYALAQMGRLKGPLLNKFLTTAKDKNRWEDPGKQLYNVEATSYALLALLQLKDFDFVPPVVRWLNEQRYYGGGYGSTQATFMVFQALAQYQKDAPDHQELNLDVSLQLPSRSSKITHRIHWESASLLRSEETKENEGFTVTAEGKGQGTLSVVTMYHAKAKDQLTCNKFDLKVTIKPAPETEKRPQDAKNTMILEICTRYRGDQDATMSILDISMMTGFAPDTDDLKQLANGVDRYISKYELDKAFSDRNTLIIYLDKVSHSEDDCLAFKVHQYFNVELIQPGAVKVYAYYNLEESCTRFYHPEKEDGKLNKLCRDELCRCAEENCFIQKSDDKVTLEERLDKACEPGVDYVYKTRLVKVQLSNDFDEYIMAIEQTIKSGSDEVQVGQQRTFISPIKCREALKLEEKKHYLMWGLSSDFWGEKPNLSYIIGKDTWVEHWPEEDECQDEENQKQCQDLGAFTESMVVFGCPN

proteinase-activated receptor 2 (PAR-2), sequence (P55085 37-397 limits assumed): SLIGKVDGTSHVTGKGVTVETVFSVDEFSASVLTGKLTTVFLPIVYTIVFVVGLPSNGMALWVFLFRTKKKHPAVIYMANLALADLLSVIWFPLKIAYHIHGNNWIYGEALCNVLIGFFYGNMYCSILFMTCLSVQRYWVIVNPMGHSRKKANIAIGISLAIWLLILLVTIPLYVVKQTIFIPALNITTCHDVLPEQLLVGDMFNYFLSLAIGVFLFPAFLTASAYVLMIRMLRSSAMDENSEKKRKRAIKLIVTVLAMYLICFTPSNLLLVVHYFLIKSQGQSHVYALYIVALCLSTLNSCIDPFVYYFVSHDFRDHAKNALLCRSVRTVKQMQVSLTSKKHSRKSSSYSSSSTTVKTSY

- PAR-2 cell based assay ED50 and SKGR/SL kcat/Km, against wild-type MTSP-1 protease domain with C122S [1]: > 30 fold
B1: Modified MTSP-1 protease domain Q38H/I41A/D60bV/F60eR/Y60gW/D96I/F97N/T98G/F99L/C122S/G151N/Q175L/Q192D (enzyme)
chain: VVGGTDADEGEWPWQVSLHALGHGHACGASLISPNWLVSAAHCYIDVRGRRWSDPTQWTAFLGLHDQSQRSAPGVQERRLKRIISHPFFNINGLDYDIALLELEKPAEYSSMVRPISLPDASHVFPAGKAIWVTGWGHTQYGGTNALILQKGEIRVINQTTCENLLPQLITPRMMCVGFLSGGVDSCDGDSGGPLSSVEADGRIFQAGVVSWGDGCAQRNKPGVYTRLPLFRDWIKENTGV

- EC50 (nM), cleavage of purified hC3 in vitro [2]: 3.72 nM
B2: Q38H/I41A/D60bV/F60eR/Y60gW/F97D/F99L/C122S/G151H/Q175L/Q192D (enzyme)
chain: B1 chain with I91D, N92D, G93T, N145H

- EC50 (nM), cleavage of purified hC3 in vitro [2]: 3.27 nM
B3: Q38Y/I41S/D60bT/F60eR/Y60gW/D96M/T98G/F99L/C122S/G151N/Q175L/Q192D (enzyme)
chain: B1 chain with H23Y, A26S, V47T, I91M, N92F

- EC50 (nM), cleavage of purified hC3 in vitro [2]: 3.72 nM
B4: H40R/I41H/Y60gH/F97D/F99L/C122S/Q175M/Q192G/D217I/K224L (enzyme)
chain: VVGGTDADEGEWPWQVSLHALGQGRHCGASLISPNWLVSAAHCYIDDRGFRHSDPTQWTAFLGLHDQSQRSAPGVQERRLKRIISHPFFNDDTLDYDIALLELEKPAEYSSMVRPISLPDASHVFPAGKAIWVTGWGHTQYGGTGALILQKGEIRVINQTTCENLLPQMITPRMMCVGFLSGGVDSCGGDSGGPLSSVEADGRIFQAGVVSWGIGCAQRNLPGVYTRLPLFRDWIKENTGV

- PAR-2 Cell Based Assay ED50 [1]: 1.4 nM
B5: Wild-type MTSP-1 protease domain with C122S (enzyme)
chain: B4 chain with R25H, H26I, H52Y, D92F, L94F, M169Q, G188Q, I214D, L221K

- PAR-2 cell based assay ED50 and SKGR/SL kcat/Km, against wild-type MTSP-1 protease domain with C122S [1]: > 30 fold
B6: Modified MTSP-1 protease domain Q38H/I41S/D60bT/F60eS/Y60gW/F97D/ins97aV/T98P/F99L/C122S/G151H/Q175L/Q192E (enzyme)
chain: VVGGTDADEGEWPWQVSLHALGHGHSCGASLISPNWLVSAAHCYIDTRGSRWSDPTQWTAFLGLHDQSQRSAPGVQERRLKRIISHPFFNDDVPLDYDIALLELEKPAEYSSMVRPISLPDASHVFPAGKAIWVTGWGHTQYGGTHALILQKGEIRVINQTTCENLLPQLITPRMMCVGFLSGGVDSCEGDSGGPLSSVEADGRIFQAGVVSWGDGCAQRNKPGVYTRLPLFRDWIKENTGV

- PAR-2 cell based assay ED50 and SKGR/SL kcat/Km, against wild-type MTSP-1 protease domain with C122S [1]: > 30 fold
B7: Modified MTSP-1 protease domain Q38H/I41S/D60bT/F60eS/Y60gW/D96L/F97D/ins97aG/T98N/F99L/C122S/G151H/Q175L/Q192E (enzyme)
chain: B6 chain with D91L, V93G, P94N

- EC50 (nM), cleavage of purified hC3 in vitro [2]: 4.53 nM
B8: Q38H/I41S/D60bT/F60eS/Y60gW/D96Y/F97N/ins97aE/T98S/F99L/C122S/G151H/Q175L/Q192D (enzyme)
chain: B6 chain with D91Y, D92N, V93E, P94S, E189D

- PAR-2 Cell Based Assay ED50 [1]: 2600 nM
B9: I41R/F97T/Ins97aE/T98G/F99L/C122S/G151N/Q175L/Q192E (enzyme)
chain: B6 chain with H23Q, S26R, T47D, S50F, W52Y, D92T, V93E, P94G, H146N

- PAR-2 cell based assay ED50 and SKGR/SL kcat/Km, against wild-type MTSP-1 protease domain with C122S [1]: > 30 fold
B10: Modified MTSP-1 protease domain Q38H/I41S/D60bT/F60eS/Y60gW/F97D/ins97aV/T98P/F99L/C122S/G151H/Q175L/Q192D (enzyme)
chain: B6 chain with E189D

- PAR-2 cell based assay ED50 and SKGR/SL kcat/Km, against wild-type MTSP-1 protease domain with C122S [1]: > 30 fold
B11: Modified MTSP-1 protease domain Q38H/I41A/D60bV/F60eR/Y60gW/F97T/ins97aE/T98G/F99L/C122S/G151H/Q175L/Q192D (enzyme)
chain: B6 chain with S26A, T47V, S50R, D92T, V93E, P94G, E189D

- PAR-2 cell based assay ED50 and SKGR/SL kcat/Km, against wild-type MTSP-1 protease domain with C122S [1]: > 30 fold
B12: Modified MTSP-1 protease domain Q38H/I41A/D60bV/F60eR/Y60gW/D96P/F97W/ins97aN/T98G/F99L/C122S/G151N/Q175L/Q192E (enzyme)
chain: B6 chain with S26A, T47V, S50R, D91P, D92W, V93N, P94G, H146N

- PAR-2 cell based assay ED50 and SKGR/SL kcat/Km, against wild-type MTSP-1 protease domain with C122S [1]: > 30 fold
B13: Modified MTSP-1 protease domain Q38H/I41S/D60bT/F60eS/Y60gW/D96K/F97D/ins97aA/T98P/F99L/C122S/G151H/Q175L/Q192D (enzyme)
chain: B6 chain with D91K, V93A, E189D

- PAR-2 Cell Based Assay ED50 [1]: 430 nM
B14: Q38H/I41A/D60bV/F60eR/Y60gW/F97T/ins97aE/T98G/F99L/C122S/G151H/Q175L/Q192D (enzyme)
chain: B6 chain with S26A, T47V, S50R, D92T, V93E, P94G, E189D

- PAR-2 cell based assay ED50 and SKGR/SL kcat/Km, against wild-type MTSP-1 protease domain with C122S [1]: > 30 fold
B15: Modified MTSP-1 protease domain I41R/F97T/Ins97aE/T98G/F99L/C122S/G151N/Q175L/Q192E (enzyme)
chain: B6 chain with H23Q, S26R, T47D, S50F, W52Y, D92T, V93E, P94G, H146N

- EC50 (nM), cleavage of purified hC3 in vitro [2]: 5.92 nM
B16: Q38H/I41S/D60bT/F60eS/Y60gW/D96K/F97D/ins97aA/T98P/F99L/C122S/G151N/Q175L/Q192D (enzyme)
chain: B6 chain with D91K, V93A, H146N, E189D

- PAR-2 Cell Based Assay ED50 [1]: 640 nM
B17: Q38H/I41S/D60bT/F60eS/Y60gW/F97D/ins97aV/T98P/F99L/C122S/G151H/Q175L/Q192D (enzyme)
chain: B6 chain with E189D

- PAR-2 cell based assay ED50 and SKGR/SL kcat/Km, against wild-type MTSP-1 protease domain with C122S [1]: > 30 fold
B18: Modified MTSP-1 protease domain Q38H/I41S/D60bT/F60eS/Y60gW/F97D/ins97aV/T98P/F99L/C122S/G151N/Q175L/Q192D (enzyme)
chain: B6 chain with H146N, E189D

- PAR-2 Cell Based Assay ED50 [1]: 560 nM
B19: Q38H/I41A/D60bT/F60eK/Y60gW/F97T/ins97aE/T98G/F99L/C122S/G151H/Q175L/Q192D (enzyme)
chain: B6 chain with S26A, S50K, D92T, V93E, P94G, E189D

- PAR-2 cell based assay ED50 and SKGR/SL kcat/Km, against wild-type MTSP-1 protease domain with C122S [1]: > 30 fold
B20: Modified MTSP-1 protease domain Q38H/I41S/D60bT/F60eS/Y60gW/D96V/F97G/ins97aV/T98P/F99L/C122S/G151H/Q175L/Q192D (enzyme)
chain: B6 chain with D91V, D92G, E189D

- PAR-2 Cell Based Assay ED50 [1]: 420 nM
B21: Q38H/I41S/D60bT/F60eS/Y60gW/D96K/F97D/ins97aA/T98P/F99L/C122S/G151H/Q175L/Q192D (enzyme)
chain: B6 chain with D91K, V93A, E189D

- EC50 (nM), cleavage of purified hC3 in vitro [2]: 3.76 nM
B22: Q38H/I41A/D60bV/F60eR/Y60gW/D96F/F97Y/ins97aN/T98G/F99M/C122S/G151N/Q175L/Q192G (enzyme)
chain: B6 chain with S26A, T47V, S50R, D91F, D92Y, V93N, P94G, L95M, H146N, E189G

- PAR-2 cell based assay ED50 and SKGR/SL kcat/Km, against wild-type MTSP-1 protease domain with C122S [1]: > 30 fold
B23: Modified MTSP-1 protease domain Q38H/I41S/D60bT/F60eS/Y60gW/D96K/F97D/ins97aA/T98P/F99L/C122S/G151N/Q175L/Q192D (enzyme)
chain: B6 chain with D91K, V93A, H146N, E189D

- PAR-2 cell based assay ED50 and SKGR/SL kcat/Km, against wild-type MTSP-1 protease domain with C122S [1]: > 30 fold
B24: Modified MTSP-1 protease domain Q38H/I41A/D60bT/F60eK/Y60gW/F97T/ins97aE/T98G/F99L/C122S/G151H/Q175L/Q192D (enzyme)
chain: B6 chain with S26A, S50K, D92T, V93E, P94G, E189D

- PAR-2 cell based assay ED50 and SKGR/SL kcat/Km, against wild-type MTSP-1 protease domain with C122S [1]: > 30 fold
B25: Modified MTSP-1 protease domain Q38H/I41A/D60bV/F60eR/Y60gW/D96I/F97Y/ins97aN/T98G/F99L/C122S/G151N/Q175L/Q192D (enzyme)
chain: B6 chain with S26A, T47V, S50R, D91I, D92Y, V93N, P94G, H146N, E189D

- PAR-2 cell based assay ED50 and SKGR/SL kcat/Km, against wild-type MTSP-1 protease domain with C122S [1]: > 30 fold
B26: Modified MTSP-1 protease domain Q38H/I41S/D60bT/F60eS/Y60gW/D96Y/F97E/ins97aV/T98G/F99L/C122S/G151H/Q175L/Q192D (enzyme)
chain: B6 chain with D91Y, D92E, P94G, E189D
